Measurements published in patent US20140274782A1, “AFFINITY REAGENTS AND METHODS FOR DETECTION, PURIFICATION, AND PROTEOMIC ANALYSIS OF METHYLATED PROTEINS” (The Board of Trustees of the Leland Stanford Junior …, priority 2013, published 2014).

T1: G9a and GLP (Homo sapiens, UniProt Q96KQ7+Q9H9B1)
T1 sequence (Q96KQ7 2-1210 limits assumed): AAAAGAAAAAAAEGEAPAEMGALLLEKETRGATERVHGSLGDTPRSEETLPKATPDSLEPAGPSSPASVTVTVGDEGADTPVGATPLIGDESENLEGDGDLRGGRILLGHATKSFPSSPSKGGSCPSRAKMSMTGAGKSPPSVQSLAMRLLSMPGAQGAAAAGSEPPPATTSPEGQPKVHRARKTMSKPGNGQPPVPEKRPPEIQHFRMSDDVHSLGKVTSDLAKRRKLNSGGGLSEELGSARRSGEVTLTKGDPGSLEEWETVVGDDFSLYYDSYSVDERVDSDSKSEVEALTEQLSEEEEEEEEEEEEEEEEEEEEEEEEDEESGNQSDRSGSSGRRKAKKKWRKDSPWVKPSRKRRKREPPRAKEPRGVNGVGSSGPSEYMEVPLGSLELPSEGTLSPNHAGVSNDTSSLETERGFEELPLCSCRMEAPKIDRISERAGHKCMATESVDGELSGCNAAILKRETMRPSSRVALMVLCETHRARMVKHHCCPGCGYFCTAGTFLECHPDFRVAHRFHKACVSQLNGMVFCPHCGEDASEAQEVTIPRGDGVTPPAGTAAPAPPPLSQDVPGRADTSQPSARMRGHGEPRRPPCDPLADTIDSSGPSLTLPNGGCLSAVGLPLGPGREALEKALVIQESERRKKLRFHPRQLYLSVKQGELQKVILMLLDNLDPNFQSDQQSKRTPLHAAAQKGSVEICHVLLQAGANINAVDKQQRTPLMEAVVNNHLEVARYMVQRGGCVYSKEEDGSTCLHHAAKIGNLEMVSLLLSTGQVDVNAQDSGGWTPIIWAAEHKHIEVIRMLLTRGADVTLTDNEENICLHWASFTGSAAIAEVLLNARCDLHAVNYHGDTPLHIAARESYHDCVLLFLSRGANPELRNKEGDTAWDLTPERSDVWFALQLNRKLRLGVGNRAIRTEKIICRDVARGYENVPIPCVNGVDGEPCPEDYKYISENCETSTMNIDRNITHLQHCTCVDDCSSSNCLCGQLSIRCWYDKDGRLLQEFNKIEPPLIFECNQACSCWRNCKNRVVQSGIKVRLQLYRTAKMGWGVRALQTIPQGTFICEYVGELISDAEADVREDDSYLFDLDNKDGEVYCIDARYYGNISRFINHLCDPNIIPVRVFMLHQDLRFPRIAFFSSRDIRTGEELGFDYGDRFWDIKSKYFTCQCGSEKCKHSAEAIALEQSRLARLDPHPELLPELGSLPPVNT
T1 sequence (Q9H9B1 2-1298 limits assumed): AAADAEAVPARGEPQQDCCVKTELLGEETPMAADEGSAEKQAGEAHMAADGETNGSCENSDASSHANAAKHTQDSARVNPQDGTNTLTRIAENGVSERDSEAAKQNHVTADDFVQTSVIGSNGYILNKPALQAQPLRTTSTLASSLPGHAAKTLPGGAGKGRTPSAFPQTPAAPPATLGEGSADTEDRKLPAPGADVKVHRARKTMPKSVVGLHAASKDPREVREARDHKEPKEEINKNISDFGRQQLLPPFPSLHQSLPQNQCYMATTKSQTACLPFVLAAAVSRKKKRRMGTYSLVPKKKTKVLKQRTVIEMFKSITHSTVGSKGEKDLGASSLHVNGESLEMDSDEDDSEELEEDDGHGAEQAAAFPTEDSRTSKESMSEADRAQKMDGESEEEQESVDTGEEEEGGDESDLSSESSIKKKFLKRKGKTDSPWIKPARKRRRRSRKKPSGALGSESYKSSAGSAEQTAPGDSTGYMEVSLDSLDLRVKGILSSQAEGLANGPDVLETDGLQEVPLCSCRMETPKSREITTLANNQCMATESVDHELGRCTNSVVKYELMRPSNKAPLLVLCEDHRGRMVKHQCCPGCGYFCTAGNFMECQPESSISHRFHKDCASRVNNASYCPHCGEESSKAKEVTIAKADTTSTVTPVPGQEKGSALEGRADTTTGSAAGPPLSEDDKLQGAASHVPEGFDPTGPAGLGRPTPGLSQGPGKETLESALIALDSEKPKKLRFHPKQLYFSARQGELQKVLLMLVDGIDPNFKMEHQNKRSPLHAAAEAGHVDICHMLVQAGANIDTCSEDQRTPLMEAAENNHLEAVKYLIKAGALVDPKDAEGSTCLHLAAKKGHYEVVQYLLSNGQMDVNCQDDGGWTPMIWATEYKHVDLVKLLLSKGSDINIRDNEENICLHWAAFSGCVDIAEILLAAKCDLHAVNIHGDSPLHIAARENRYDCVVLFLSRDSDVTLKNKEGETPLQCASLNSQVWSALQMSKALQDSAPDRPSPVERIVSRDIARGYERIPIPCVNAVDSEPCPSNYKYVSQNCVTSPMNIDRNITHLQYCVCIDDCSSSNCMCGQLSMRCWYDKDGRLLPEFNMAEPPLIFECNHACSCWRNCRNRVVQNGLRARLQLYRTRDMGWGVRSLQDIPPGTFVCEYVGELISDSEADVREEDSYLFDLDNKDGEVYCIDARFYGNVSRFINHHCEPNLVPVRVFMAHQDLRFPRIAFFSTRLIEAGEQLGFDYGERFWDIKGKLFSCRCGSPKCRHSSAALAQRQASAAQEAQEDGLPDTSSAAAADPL

B1: SEC24A (protein, UniProt O95486 1-1093, looked up)
Protein transport protein …: MSQPGIPASGGAPASLQAQNGAALASGSPYTNGPVQNALLSSQESVSQGYNFQLPGSYPHPIPAKTLNPVSGQSNYGGSQGSGQTLNRPPVASNPVTPSLHSGPAPRMPLPASQNPATTPMPSSSFLPEANLPPPLNWQYNYPSTASQTNHCPRASSQPTVSGNTSLTTNHQYVSSGYPSLQNSFIKSGPSVPPLVNPPLPTTFQPGAPHGPPPAGGPPPVRALTPLTSSYRDVPQPLFNSAVNQEGITSNTNNGSMVVHSSYDEIEGGGLLATPQLTNKNPKMSRSVGYSYPSLPPGYQNTTPPGATGVPPSSLNYPSGPQAFTQTPLGANHLTTSMSGLSLQPEGLRVVNLLQERNMLPSTPLKPPVPNLHEDIQKLNCNPELFRCTLTSIPQTQALLNKAKLPLGLLLHPFKDLVQLPVVTSSTIVRCRSCRTYINPFVSFLDQRRWKCNLCYRVNDVPEEFLYNPLTRVYGEPHRRPEVQNATIEFMAPSEYMLRPPQPPVYLFVFDVSHNAVETGYLNSVCQSLLDNLDLLPGNTRTKIGFITFDSTIHFYGLQESLSQPQMLIVSDIEDVFIPMPENLLVNLNESKELVQDLLKTLPQMFTKTLETQSALGPALQAAFKLMSPTGGRMSVFQTQLPTLGVGALKPREEPNHRSSAKDIHMTPSTDFYKKLALDCSGQQVAVDLFLLSGQYSDLASLGCISRYSAGSVYYYPSYHHQHNPVQVQKLQKELQRYLTRKIGFEAVMRIRCTKGLSIHTFHGNFFVRSTDLLSLPNVNPDAGYAVQMSVEESLTDTQLVSFQSALLYTSSKGERRIRVHTLCLPVVSTLNDVFLGADVQAISGLLANMAVDRSMTASLSDARDALVNAVIDSLSAYRSSVLSNQQPGLMVPFSLRLFPLFVLALLKQKSFQTGTNARLDERIFAMCQVKNQPLVYLMLTTHPSLYRVDNLSDEGALNISDRTIPQPPILQLSVEKLSRDGAFLMDAGSVLMLWVGKNCTQNFLSQVLGVQNYASIPQPMTDLPELDTPESARIIAFISWLREQRPFFPILYVIRDESPMKANFLQNMIEDRTESALSYYEFLLHIQQQVNK
B2: SRSF11 (protein, UniProt Q05519 2-484, looked up)
Serine/arginine-rich splicing …: SNTTVVPSTAGPGPSGGPGGGGGGGGGGGGTEVIQVTNVSPSASSEQMRTLFGFLGKIDELRLFPPDDSPLPVSSRVCFVKFHDPDSAVVAQHLTNTVFVDRALIVVPYAEGVIPDEAKALSLLAPANAVAGLLPGGGLLPTPNPLTQIGAVPLAALGAPTLDPALAALGLPGANLNSQSLAADQLLKLMSTVDPKLNHVAAGLVSPSLKSDTSSKEIEEAMKRVREAQSLISAAIEPDKKEEKRRHSRSRSRSRRRRTPSSSRHRRSRSRSRRRSHSKSRSRRRSKSPRRRRSHSRERGRRSRSTSKTRDKKKEDKEKKRSKTPPKSYSTARRSRSASRERRRRRSRSGTRSPKKPRSPKRKLSRSPSPRRHKKEKKKDKDKERSRDERERSTSKKKKSKDKEKDRERKSESDKDVKQVTRDYDEEEQGYDSEKEKKEEKKPIETGSPKTKECSVEKGTGDSLRESKVNGDDHHEEDMDMSD

Experiments:
3×MBT domain of L3MBTL1 = assay: Triple SILAC pull-down, 3xMBT/3xMBTD355N ratio (cytoplasmic, nuclear and chromatin fractions of 293T cells); format: binding, human; conditions: SILAC ratio, pull-down 3xMBT vs 3xMBTD355N; for 3xMBT/D355N UNC Heavy: experiment with UNC0638 in heavy SILAC media; for 3xMBT/D355N UNC Light: experiment with UNC0638 in light SILAC media;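 for all read-outs here: proteins quantified with MaxQuant, requiring at least two unique peptides and quantification in both label directions, normalized to the mean of proteins from a digested loading control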
G9a and GLP = molecular target: T1, G9a and GLP; assay: Triple SILAC pull-down after UNC0638 treatment of 293T cells, DMSO/UNC0638 ratio of protein captured by 3×MBT; format: cell-based; set-up: cells were treated for 24 hours with UNC0638 at 2.5 μM or DMSO vehicle control; endogenous in cells; host or cells: HEK 293T; conditions: for Relative to UNC0638 UNC Heavy / Relative to UNC0638 UNC Light: SILAC ratio DMSO/UNC0638 of protein pulled down with 3xMBT; for Relative to UNC0638 UNC Heavy: UNC0638 in heavy SILAC media; for Relative to UNC0638 UNC Light: UNC0638 in light SILAC media; for Relative to UNC0638 Average: average of UNC Light and UNC Heavy experiments;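 for all read-outs here: mass spectrometry (Q-Exactive) SILAC quantitation, DMSO/UNC0638 ratio computed after subtracting 3×MBTD355N mutant pull-down background, only proteins with at least twofold 3×MBT over mutant signal considered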

Row | Molecule | 3xMBT/D355N UNC Heavy (3×MBT domain of L3MBTL1) | 3xMBT/D355N UNC Light (3×MBT domain of L3MBTL1) | Relative to UNC0638 UNC Heavy (G9a and GLP) | Relative to UNC0638 UNC Light (G9a and GLP) | Relative to UNC0638 Average (G9a and GLP)
1 | B1 | 1.94 log base 2 | 2.29 log base 2 | 0.60 log base 2 | −0.11 log base 2 | 0.24 log base 2
2 | B2 | 2.45 log base 2 | 2.22 log base 2 | 0.15 log base 2 | 0.34 log base 2 | 0.24 log base 2
